The DeepSol protein solubility set

test: soluble on expression in E. coli; label from the status in PepcDB or PDB records

Sequence	soluble on expression in E. coli
MSRSQVTGKEFVLRCVFNDVSNMNDNDMRFGTVEEYFNVPWIFQIQRNNGNLGIYLRCTNLKDQEMWSIFSELELKLVSVYSDTRDQKCKIDMCFGHDSGKFYSSYGWSEFISWNELETSFMEAGSITVEARVLINKSIGFYTPKLMDFDEKMMEYSDIVVLVNGQRFYLLKKFLAFHSTFFESLFLGGFYEAKLAEVPLYDIDVDDFQKFLEVLYGFPVINVIVPINKLTLQQSEMLNACAQYAQTGSQKLTREANYVITEVRLF	not soluble
MSRVGVMVLGPAGAGKSTFCNSIISHMQTVGRRAHIVNLDPAAEATKYEFTIDIRDLISLDDVMEEMDLGPNGALIYCFEYLLKNLDWLDEEIGDFNDEYLIFDCPGQIELYTHIPVLPNIVRHLTQQLNFNLCATYLLEAPFVIDSSKFFSGALSAMSAMILLELPHINVLSKLDLIKGDINKKKLKRFLNPDAMLLMETEGMNQASNPKFLRLNQCIANLVDDFGMVQFLPLESNNPDSIETILSYVDDITQWAEGQEQKEPNDQIDVEE	soluble
MSRVPRTFAGWTEQMSSSGKMYYYNKKTEISQWDKPAEWPAEGGSAERDKPKGGVNEKPRFAEDRYNEYIGQLSSSSSCFWRQIGIFSLSSSSKYYLCASRFLPLSHSLLQFLREIRRRL	not soluble
MSSAYQLVIFDWEGTIADTLGVILHTVATEAKMLGFGDIDPYQARKYVDLGLVQAVKKTLPNLTAGQQEDLLQAVQSAMISRPTEVRLIPGVLEFIQQLHQAKVDLAIATNKGHNSLIRALQATELDQLFKVTRSAGQVPAKPCPQMLEEIMEEFGRDPSSTLMIGDSTTDMEMAKRINVNAIGMDFYHQQEDALKAAGALAVFDDYKLLSAYLMLPEA	not soluble
MSSDKFKLDTLFDDNDEIIEPDGADVKKRNVAYYYHKDVGHFHYGQLHPMKPQRLVVCNDLVVSYEMPKYMTVVESPKLDAADISVFHTEDYVNFLQTVTPKLGLTMPDDVLRQFNIGEDCPIFAGLWDYCTLYAGGSVEGARRLNHKMNDIVINWPGGLHHAKKSEASGFCYVNDIVLGILELLKYHKRVLYIDIDIHHGDGVQEAFNNSDRVMTVSFHRFGQYFPGSGSIMDKGVGPGKYFAINVPLMAAIRDEPYLKLFESVISGVEENFNPEAIVLQCGSDSLCEDRLGQFALSFNAHARAVKYVKSLGKPLMVLGGGGYTLRNVARCWALETGVILGLRMDDEIPGTSLYSHYFTPRLLRPNLVPKMNDANSAAYLASIEKETLACLRMIRGAPSVQMQNIVGIRLDEIEQIEENERLQKSSKSSIEYEVGKVSEKMEEECFVEEDSKPPSFPPGQDPRRIGQYWGYDRSGLAPPRSHSDVIEEAKYEDRDRRKDLNIPGIP	not soluble
MSSEPPPPPQPPTHQASVGLLDTPRSRERSPSPLRGNVVPSPLPTRRTRTFSATVRASQGPVYKGVCKCFCRSKGHGFITPADGGPDIFLHISDVEGEYVPVEGDEVTYKMCSIPPKNEKLQAVEVVITHLAPGTKHETWSGHVISS	soluble
MSSFQLQQLPSLPIKEVFKSLGVCDLLNLCRSSNKSRRLVKKSLKDITFTLKIVAEEKHYKIWLKEDFSKHKARIRAENSNGTSLFKNIRWLMHTFWVETVYLDCTNVEEGDVVKVVEYLKKEKPYYLKLYFECPMISDSLWQLMLNCEADVLIISVDREVKVTFDNVPLLFNCECIILHGVKFSEKGMNLLFKTWQSSKERTLQCVSLTRKLGPFWKKQANEKVVLKGIDVESVEKKRIFKVKKDGIKKSTTYNLVKNDGELATLKFDKQEICFHTENDR	not soluble
MSSGFGGEKEEEITQKTAKSSEKAIVPKYNISDSYYKMVLPFKAGKARGLTTEQLNTRLDIDEFETGLMRLAQDSFSTDDYLFQEGQYLDEDTVLSWLARKKTGSDLKKAEKEDKNFKNEGLNPALPSSGSTEEKNESSPIYLASMLEHDYLVRKDKNSIQLGGVMIGLALNSVYYYREKTGDPQKEVEIKDSTLRQQGEKIAQEVINRLRKKDNLKNVPITVALYKQASKTSIVPGNFIAKTEVKAGSTDISNWDDINEKYVFYPADTTTAEKYPDDTEVFKRFKNSIEEYFPNYTGVVGTALYENDEMKKMKIDIPMQFYGKSEVVAFTQFLTGEVMDYYSKSSVDVEVNITSSDGQEAVIIRNAGDKEPTVHIYDLEHHHHHH	soluble
MSSKNEQTPKVPAELDPLNETIFREQMYAIYQVCQYPSKEQYAEWAQTYQIQQRRIRKWFDNRRTRDRERRKRKGDDNEDSSEISKRGRVTCGLDYKNHEEESTDDFQDDIEELDNSQFEMAKVSSIRDELKDVKSESPPVMEQSFHLRTVQHVSTPRRDRIIPESQTLFVPAGCSLDYEKWTPAEFLQWTSNFLSSAQAMDIIKSQEISGDTMESFFDDPDFRKETGMPYGPFQTIKKHAATVINRFNGYE	not soluble
MSSKPLYTILTVFNPIFIYFTKRDNLHTLRFKKDRAIKISEELFPDELCERCGRCCILHAYKTEDGIKTIYCEHLDPETKLCKVYKDRFKHRCLTVMEGILAGVFPKDCPYVKNLKNYEEPWFYRHLRDLEHHHHHH	not soluble
MSSPGGETSTKQQQELKAQIKIGHYILKETLGVGTFGKVKVGIHETTQYKVAVKILNRQKIKSLDVVGKIRREIQNLSLFRHPHIIRLYQVISTPSDIFMIMEHVSGGELFDYIVKHGRLKTAEARRFFQQIISGVDYCHRHMVVHRDLKPENLLLDEQNNVKIADFGLSNIMTDGDFLRTSCGSPNYAAPEVISGKLYAGPEVDVWSCGVILYALLCGTLPFDDEHVPSLFRKIKSGVFPTPDFLERPIVNLLHHMLCVDPMKRATIKDVIAHEWFQKDLPNYLFPPINESEASIVDIEAVREVTERYHVAEEEVTSALLGDDPHHHLSIAYNLIVDNKRIADETAKLSIEEFYQVTPNKGPGPVHRHPERIAASVSSKITPTLDNTEASGANRNKRAKWHLGIRSQSRPEDIMFEVFRAMKQLDMEWKVLNPYHVIVRRKPDAPAADPPKMSLQLYQVDQRSYLLDFKSLADEESGSASASSSRHASMSMPQKPAGIRGTRTSSMPQAMSMEASIEKMEVHDFSDMSCDVTPPPSPGGAKLSQTMQFFEICAALIGTLAR	not soluble
MSSPGGGTRFALVAGTTETAGRAGISAAGADPELMSVTPAADAELVTYGTPVRTDVTPVSPSGCPTPALVTRAAREVLGFDVTVVDGGLAEKTGAPTVSVGARPGKDIAEQDPVSTAHGAFAAARQFGQSLPADELYLGETIPGGTTTALGVLRALGEDGMVSSSLPENPTAQKSEVVAEGLQASSLEPGDAANEPKRAVRRMGDPVLATLAGLTAGAVESDTAVTLAGGSQCVAVAALVRHGGYEGPLGLATTSYVADDESADVRASVDRLDLDLTVTDPGFDRSDHVAMERFVAGEAKEGVGMGGALALADRAGIPMAEVRDRFAAIYDDLIGDAPTATAEERT	not soluble
MSSPHSLRQQYQSLIASGSIEADPAQARAVQAFTLLNETLDGYKPPKKQGFFGRLFGGGDAGQAPPQGLYIHGEVGRGKTMLMDLFFDASPIALKRRSHFHEFMAETHDRINGFRQAIKRGDIPDADVMELTAASILDEAWLLCFDEFHVTDIADAMILGRLFTKLFELGTVVVATSNVAPDDLYKGGLNRSLFMPFIGQVKRHMRVIRLDARTDYRLEKFAGMKVWLAPDDAEATATIDRAWHRITGTTKGEPRDISIKGRILHVPQADHHVARFSFADLCQKPLGASDYLRLAHEYHTLMIDHVPVMDYADRNAAKRFIALIDTLYDNSVKLMASAAAEPARLYRATEGFEALEFNRTVSRLTEMGSESYLALPHGRRDSTATGETTGLVETMAGDPLEHHHHHH	not soluble
MSSQSIDDKFMSITQMKNLIHYVKKNDALSHLCIYILIITGSRFKPVQHLRYEDLNFKKSCIHLNDTKNKYSKRNVKVRIKDLEYIQSVINKHPINQNGYIFHNFINFISYSAINDVLVRFCLKYKYDKYTLKSLRHTHCSYLLAKGISIQYISKRLGHADIHTTLKIYSHLIKEFEDSENSLIEKNLNDLFSDLEHHHHHH	not soluble
MSSRAVSLLSRVISQNRGLASLRETVGERDASLLYEPKFQDSREFPEYNTINVRIQGHDFGSLEKYQAYIHKTAKRFGFTVVDSYAVAAQTQKAITYKPYSTVSESEIDMSTYDRVVRLSDVAAPRFSLFSQIIRAHIPIGVTMTVKEHEKVDEDSRYIPDLLLKQKQEELKALDDPNVRRNLGWE	not soluble
MSSSHSRAGQSAAGAAPGGGVDTRDAEMPATEKDLAEDAPWKKIQQNTFTRWCNEHLKCVSKRIANLQTDLSDGLRLIALLEVLSQKKMHRKHNQRPTFRQMQLENVSVALEFLDRESIKLVSIDSKAIVDGNLKLILGLIWTLILHYSISMPMWDEEEDEEAKKQTPKQRLLGWIQNKLPQLPITNFSRDWQSGRALGALVDSCAPGLCPDWDSWDASKPVTNAREAMQQADDWLGIPQVITPEEIVDPNVDEHSVMTYLSQFPKAKLKPGAPLRPK	soluble
MSSTKIDTTKPLSILLLGVDTGADGRIDKGNSDTIMVVTINPQTKKTLITSIPRDSLAEMVGDQDTNVQKLNAAYNIGGSKMAKASVSKLFNVPIDYYATINMGGLKQIVDAVGGVTITSPLNVSFDHITVTKGKHHLNGKQALSYTRMRYQDPRGDYGRQLRQQQVMRAVLAKLAETKTYSRYNQLLTSLKGNLQTDLSFNDLVGLATHDRANMKHIQSTQVIGSPAWINTSSYQILSTKTLQQTSDRLRTQLGLSTETLTNMETKLNAKNTVYDGKTNLNYDTQGLDKITYSDNTKLEHHHHHH	soluble
MSSTRTASGRTSGRNGTWRNWGGNVSARPAREVTPASVDELADAVRRAAEDGQRVKAVGTGHSFTSIAATDGVLIRPQLLTGIRSIDRDAMTVTVEAGTPLKRLNMALAREGLSLTNMGDIMEQTVSGATSTGTHGTGRDSASIAAQIRGLELVTADGSVLTCSADENPEVFAAARIGLGALGVVTAITFAVEPVFLLTAREEPMPFDRVLADFDALWSENEHFEFYWFPHTNSTNTKRNNRSAGPERPVGRFQGWLDDEFLSNGLFQAVNWVGRAAPATIPSIARISSRALSARTYTDTPYKVFTSPRRVRFVEMEYAVPREAVVEVLRELRTMVDRSRLRISFPVEVRTAPADDITLSTASARDSAYIAVHMFRGTPYQAYFTAAERIFTAHEGRPHWGKVHTRDAGYFSRVYPRFGEFTALRDRLDPDRLFQNDYLRRVLGPLEHHHHHH	soluble
MSSVVVVGTQWGDEGKGKITDFLSEHAEVVARYQGGNNAGHTIVFGGVKYKLHLIPSGIFYKEKICVIGNGLVVDPKALLEELKYLHDRGVSTDNLRVSNRAHVILPYHLKQDELEEASKGDNKIGTTKKGIGPAYMDKAARIGIRMADLLDREAFKEKLEQNLAQKNRLFEKMYDTEGFSVDEIFEEYFEYGQQIAQYVCDTSVVLNDALDNNHRVLFEGAQGVMLDIDHGTYPFVTSSNPIAGGVTVGTGVGPAKVTRVVGVCKAYTSRVGDGPFPTELHDEIGHQIREVGREYGTTTGRPRRVGWFDSVVVRHARRVSGLTDLSLNSIDVLTGIPTLKICVAYKCDGKVIDEVPANLNILAKCEPVYEELPGWTEDITGVRSLDELPENARKYVERVSELTGIQLSMFSVGPDRNQTNIVRNVYEA	not soluble
MSSYEMFADKNIVAGELANLMASAGWGTEGDYDATAIEKSLSAYPMIAYCRDSDGLLVGYISAFTDGAFSTFVGELVVRPTYQQRGIGSALLAMIVEKCRGVPVYATPFQGTEKFFLDRGFRVPERPMSVVSMRNVT	not soluble
